Measured values reported in patent US20240228562A1, “NOVEL LIPOCALIN MUTEINS SPECIFIC FOR CONNECTIVE TISSUE GROWTH FACTOR (CTGF)” (PIERIS PHARMACEUTICALS GMBH, priority 2021, published 2024).

Assays:
[1] = Thermal stability assessment by nanoDSC; assay type: physicochemical; conditions: 1 mg/mL in PBS, scan 25-100° C. at 1° C./min
Procedure, shortened: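 CTGF-specific lipocalin muteins at 1 mg/mL in PBS scanned from 25 to 100° C at 1° C/min by capillary nano-DSC. Where several transitions occur, the Tm of the major unfolding event is reported, along with onset temperature. Some muteins were expressed in E. coli, others in CHO cells.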

CTGF = target: T1, CTGF (Homo sapiens, UniProt P29279); test: Specificity ELISA (CCN proteins), human CTGF; assay type: binding; conditions: coated 1 μg/ml, muteins from 1000 nM
T1 sequence (P29279 27-349): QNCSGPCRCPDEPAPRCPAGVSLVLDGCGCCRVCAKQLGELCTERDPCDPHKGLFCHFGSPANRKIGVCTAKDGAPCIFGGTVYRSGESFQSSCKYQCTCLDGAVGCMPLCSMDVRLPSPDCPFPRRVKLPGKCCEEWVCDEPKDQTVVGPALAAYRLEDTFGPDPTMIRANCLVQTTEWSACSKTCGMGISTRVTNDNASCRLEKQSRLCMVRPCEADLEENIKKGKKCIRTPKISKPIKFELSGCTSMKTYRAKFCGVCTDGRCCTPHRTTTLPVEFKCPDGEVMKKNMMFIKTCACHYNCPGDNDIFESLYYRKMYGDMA
Protocol: (§1) Binding of muteins to closely related proteins of CTGF was tested by an ELISA assay. In detail, a 384-well plate suitable for fluorescence measurements (Greiner FLUOTRAC™ 600, black flat bottom, high-binding) was coated with 20 μl of human CTGF or the other members of the CCN protein family at a concentration of 1 μg/ml in PBS over night at 4° C. After washing with PBS with 0.05% Tween 20, wells were blocked with 100 μl blocking buffer containing 0.1% Tween 20 and 2% BSA (PBS-T/BSA) for 1 h at room temperature. 20 μl of serially diluted muteins starting at 1000 nM were incubated in PBS-T/BSA for 1 h at room temperature (RT).
(§2) The residual supernatants were discarded and 20 μl HRP-labeled anti-NGAL or anti-Strep-Tag antibody was added at a predetermined optimal concentration in PBS-T/BSA and incubated for 1 h at RT. After washing, 20 μl fluorogenic HRP substrate (QuantaBlu, Thermo) was added to each well, and the reaction was allowed to proceed for 2 to 60 minutes. The fluorescence intensity of every well on the plate was read using a fluorescence microplate reader (Tecan). When the signal for human CTGF approached saturation, the cross reactivity to the other proteins was assessed.

huCYR61 = target: T2, huCYR61 (Homo sapiens, UniProt O00622); test: Specificity ELISA (CCN proteins), huCYR61; assay type: binding; conditions: coated 1 μg/ml; assessed when human CTGF signal approached saturation
T2 sequence (O00622 25-381): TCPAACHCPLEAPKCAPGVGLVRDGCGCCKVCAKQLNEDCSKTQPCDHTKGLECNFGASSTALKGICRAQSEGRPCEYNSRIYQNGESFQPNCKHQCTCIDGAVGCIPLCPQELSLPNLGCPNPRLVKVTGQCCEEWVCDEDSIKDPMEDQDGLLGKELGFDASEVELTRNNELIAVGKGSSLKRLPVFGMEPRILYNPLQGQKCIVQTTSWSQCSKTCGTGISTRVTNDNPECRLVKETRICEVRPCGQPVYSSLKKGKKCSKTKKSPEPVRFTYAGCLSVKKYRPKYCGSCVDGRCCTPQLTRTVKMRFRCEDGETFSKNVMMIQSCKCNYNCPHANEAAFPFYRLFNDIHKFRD
Protocol: as §1, §2

huNOV = target: T3, huNOV (Homo sapiens, UniProt P48745); test: Specificity ELISA (CCN proteins), huNOV; assay type: binding; conditions: coated 1 μg/ml; assessed when human CTGF signal approached saturation
T3 sequence (P48745 32-357): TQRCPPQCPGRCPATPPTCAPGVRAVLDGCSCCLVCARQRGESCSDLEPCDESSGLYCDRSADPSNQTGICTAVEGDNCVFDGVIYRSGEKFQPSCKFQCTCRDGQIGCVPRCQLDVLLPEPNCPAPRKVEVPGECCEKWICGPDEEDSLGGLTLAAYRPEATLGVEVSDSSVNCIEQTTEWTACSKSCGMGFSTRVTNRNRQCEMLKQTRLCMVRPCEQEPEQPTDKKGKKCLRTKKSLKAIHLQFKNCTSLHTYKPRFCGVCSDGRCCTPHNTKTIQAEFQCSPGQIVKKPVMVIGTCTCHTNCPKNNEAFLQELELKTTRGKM
Protocol: as §1, §2

huWISP-1 = target: T4, huWISP-1 (Homo sapiens, UniProt O95388); test: Specificity ELISA (CCN proteins), huWISP-1; assay type: binding; conditions: coated 1 μg/ml; assessed when human CTGF signal approached saturation
T4 sequence (O95388 23-367): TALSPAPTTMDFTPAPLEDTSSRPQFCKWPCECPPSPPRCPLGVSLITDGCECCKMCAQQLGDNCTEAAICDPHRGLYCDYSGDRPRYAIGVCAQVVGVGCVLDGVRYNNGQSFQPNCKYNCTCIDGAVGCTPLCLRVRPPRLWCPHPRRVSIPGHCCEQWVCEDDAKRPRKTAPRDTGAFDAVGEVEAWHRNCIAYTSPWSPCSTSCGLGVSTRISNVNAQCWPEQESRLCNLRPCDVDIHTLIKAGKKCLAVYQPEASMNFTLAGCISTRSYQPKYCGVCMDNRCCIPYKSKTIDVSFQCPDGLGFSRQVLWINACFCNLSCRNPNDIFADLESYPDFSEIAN
Protocol: as §1, §2

huWISP-2 = target: T5, huWISP-2 (Homo sapiens, UniProt O76076); test: Specificity ELISA (CCN proteins), huWISP-2; assay type: binding; conditions: coated 1 μg/ml; assessed when human CTGF signal approached saturation
T5 sequence (O76076 24-250): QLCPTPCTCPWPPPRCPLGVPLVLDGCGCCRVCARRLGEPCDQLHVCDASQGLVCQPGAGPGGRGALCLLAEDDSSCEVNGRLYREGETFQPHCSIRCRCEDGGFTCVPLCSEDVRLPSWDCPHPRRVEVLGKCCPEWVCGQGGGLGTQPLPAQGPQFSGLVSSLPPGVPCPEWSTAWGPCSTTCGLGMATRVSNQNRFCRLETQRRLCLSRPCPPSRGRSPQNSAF
Protocol: as §1, §2

huWISP-3 = target: T6, huWISP-3 (Homo sapiens, UniProt O95389); test: Specificity ELISA (CCN proteins), huWISP-3; assay type: binding; conditions: coated 1 μg/ml; assessed when human CTGF signal approached saturation
T6 sequence (O95389 24-354): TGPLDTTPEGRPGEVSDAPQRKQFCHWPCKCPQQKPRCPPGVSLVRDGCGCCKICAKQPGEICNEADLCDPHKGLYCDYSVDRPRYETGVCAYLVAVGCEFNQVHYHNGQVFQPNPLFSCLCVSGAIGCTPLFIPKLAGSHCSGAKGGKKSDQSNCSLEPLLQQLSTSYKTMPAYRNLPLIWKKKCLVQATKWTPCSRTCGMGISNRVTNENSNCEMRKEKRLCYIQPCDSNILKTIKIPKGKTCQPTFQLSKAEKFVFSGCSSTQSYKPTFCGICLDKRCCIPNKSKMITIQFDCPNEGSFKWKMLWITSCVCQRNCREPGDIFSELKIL
Protocol: as §1, §2

- ELISA binding to HUMAN CTGF (CTGF): Binding
- ELISA binding to huCYR61 (huCYR61): No binding
- ELISA binding to huNOV (huNOV): No binding
- ELISA binding to huWISP-1 (huWISP-1): No binding
- ELISA binding to huWISP-2 (huWISP-2): No binding
- ELISA binding to huWISP-3 (huWISP-3): No binding
B1: SEQ ID NO: 76: fusion protein comprising two CTGF-binding lipocalin muteins (protein)
chain: QDSTSDLIPAPPLSKVPLQQNFQDNQFQGKWYVVGLAGNAILREDKQPAKMFATIYELKEDKSYDVTSVRFEAKSCKYTIKTFVPGSQPGEFTAGYIKSAPGQTSTLVRVVSTNYNQHAMVFFKHVTQNREIFVITLYGRTKELTSELKENFIRFSKSLGLPENHIVFPVPIDQCIDGGGGGSGGGGSGGGGSQDSTSDLIPAPPLSKVPLQQNFQDNQFQGKWYVVGWAGNVKLREDKQPLKMSATIYELKEDKSYDVTEVVFEQKKCHYIIKTFVPGSQPGEFTAGDIKSPPGYTSSLVRVVSTNYNQHAMVFFKKVSQNREFFWITLYGRTKELTSELKENFIRFSKSLGLPENHIVFPVPIDQCIDG
modifications: fusion protein
- ONSET MELTING [1]: 63 °C
- TM ([1]; major transition): 73 °C
